From the DeepSol protein solubility set

test: soluble on expression in E. coli; label from the status in PepcDB or PDB records

Soluble on expression in E. coli, soluble:
MGGSHHHHHHRSESTVTEELKEGIDAVYPSLVGTADSKAEGIKNYFKLSFTLPEEQKSRTVGSEAPLKDVAQALSSRARYELFTEKETANPAFNGEVIKRYKELMEHGEGIADILRSRLAKFLNTKDVGKRFAQGTEANRWVGGKLLNIVEQDGDTFKYNEQLLQTAVLAGLQWRLTATSNTAIKDAKDVAAITGIDQALLPEGLVEQFDTGMTLTEAVSSLAQKIESYWGLSRNPNAPLGYTKGIPTAMAAEILAAFVESTDVVENIVDMSEIDPDNKKTIGLYTITELDSFDPINSFPTAIEEAVLVNPTEKMFFGDDIPPVANTQLRNPAVRNTPEQKAALKAEQATEFYVHTPMVQFYETLGKDRILELMGAGTLNKELLNDNHAKSLEGKNRSVEDSYNQLFSVIEQVRAQSEDISTVPIHYAYNMTRVGRMQMLGKYNPQSAKLVREAILPTKATLDLSNQNNEDFSAFQLGLAQALDIKVHTMTREVMSDELTKLLEGNLKPAIDMMVEFNTTGSLPENAVDVLNTALGDRKSFVALMALMEYSRYLVAEDKSAFVTPLYVEADGVTNGPINAMMLMTGGLFTPDWIRNIAKGGLFIGSPNKTMNEHRSTADNNDLYQASTNALMESLGKLRSNYASNMPIQSQIDSLLSLMDLFLPDINLGENGALELKRGIAKNPLTITIYGSGARGIAGKLVSSVTDAIYERMSDVLKARAKDPNISAAMAMFGKQAASEAHAEELLARFLKDMETLTSTVPVKRKGVLELQSTGTGAKGKINPKTYTIKGEQLKALQENMLHFFVEPLRNGITQTVGESLVYSTEQLQKATQIQSVVLEDMFKQRVQEKLAEKAKDPTWKKGDFLTQKELNDIQASLNNLAPMIETGSQTFYIAGSENAEVANQVLATNLDDRMRVPMSIYAPAQAGVAGIPFMTIGTGDGMMMQTLSTMKGAPKNTLKIFDGMNIGLNDITDASRKANEAVYTSWQGNPIKNVYESYAKFMKNVDFSKLSPEALEAIGKSALEYDQRENATVDDIANAASLIERNLRNIALGVDIRHKVLDKVNLSIDQMAAVGAPYQNNGKIDLSNMTPEQQADELNKLFREELEARKQKVAKA
MGHHHHHHDTDIPTTENLTFQGACRLVANCRDVRCRRLLRNVMPVAGSELPRRPLPPAAQERDAEPRPPHGELQYLGQIQHILRCGVRKDDRTGTGTLSVFGMQARYSLRDEFPLLTTKRVFWKGVLEELLWFIKGSTNAKELSSKGVKIWDANGSRDFLDSLGFSTREEGDLGPVYGFQWRHFGAEYRDMESDYSGQGVDQLQRVIDTIKTNPDDRRIIMCAWNPRDLPLMALPPCHALCQFYVVNSELSCQLYQRSGDMGLGVPFNIASYALLTYMIAHITGLKPGDFIHTLGDAHIYLNHIEPLKIQLQREPRPFPKLRILRKVEKIDDFKAEDFQIEGYNPHPTIKMEMAV
MGHHHHHHHHHSSGHIDDDDKHMLEASAKATMGQGEQDHFVLKSGHAMPAVGLGTWRAGSDTAHSVRTAITEAGYRHVDTAAEYGVEKEVGKGLKAAMEAGIDRKDLFVTSKIWCTNLAPERVRPALENTLKDLQLDYIDLYHIHWPFRLKDGAHMPPEAGEVLEFDMEGVWKEMENLVKDGLVKDIGVCNYTVTKLNRLLRSAKIPPAVCQMEMHPGWKNDKIFEACKKHGIHITAYSPLGSSEKNLAHDPVVEKVANKLNKTPGQVLIKWALQRGTSVIPKSSKDERIKENIQVFGWEIPEEDFKVLCSIKDEKRVLTGEELFVNKTHGPYRSARDVWDHEN
MGHHHHHHSHAQHNYVISLTTEQKRRKHITEEFGKQNIPFEFFDAITPDIIEETAKKFNITLDRSPKAKLSDGEIGCALSHIVLWDLALENNLNYINIFEDDIHLGENAKELLEIDYISDDIHVLKLEANGKMFFKQPKSVKCDRNVYPMTVKQSGCAGYTVTAKGAKYLLELVKNKPLDVAVDSLV
MGHHHHHHSHDSLAEFKVPLILFSGGEPLLREDIFEIAGYAKKKGIKSVLSTNGTLIDRDMAENLKVFEYVGVSLDGVASTNDRFRGVEGAYERAFKGLLMASEVVLSGIRFTVSKYNYKDVFSLIELAREHEIPRFCLYHLVPSGRAEFKDDITNEQRRALLDNLLREAEKEGMEIMTVDNPADGIYTYLKLKEADSEKAEMALEFLKFRGGDSSGIRLANIDHQGNVHPNQFW
MGHHHHHHSHIVERVIEATLPTKFYGTFRAVGYKTPLGEIVALVKGRVDEGDVLVRIHSECLTGDVFHSLRCDCGDQLENALKMIDREGKGVAIYMRGHEGRGIGLINKLMAYKLQEEGKDTVDANIELGFPPDMRSYGIAAQILMDLKVKSIRLLTNNPLKIEELKKYGFKIVREPIE
MGHHHHHHSHMAERETETSNSESKQDKAASSKEKNGCNANSFEGSSTTKSEESITVSDKENETCLADQETGSKNIVSCDSNIGADKVEKKKQIQHVCQEMELKMCQSSENIILSDQIKDHNSSEARFSSKNIKDLRLASDNVSIDQFLRKRHEPESVSSDVSEQGSIHLEPLTPSEVLEYEATEILQKGSGDPSAKTDEVVSDQTDDIPGGNNPSTTEATVDLEDEKERS
MGHHHHHHSHMAQLENQILETLKPLIDANTGKSYVAAKNVKNLKCGDAEISLDVVLAYPAKSQFDAVRQQFEAALAPLAEGRAIKIAVSAQIVSHSAQRGVPLLPGVKNVIAVASGKGGVGKSTTAANLALALADEGARVGLLDADIYGPSQPLMMGLQGQRPETADGKLTPLSNHGIQTMSIGYLVDADQAMVWRGPMVSQALQQLLNDTRWDDLDYLVIDMPPGTGDVQLTLSQKVPVTGALIVTTPQDIALLDARKGVTMFQKVGVPILGLVENMAIHVCSNCGHAEHIFGEGGAVKMAQDFGVELLGSLPLDLAIRQAVDEGRPSVAADPSGKPAELYRAIARRVAVKVGEKAQDFSGKFPKIVIQNN
MGHHHHHHSHMEDSHKSTTSETAPQPGSAVQGAHISHIAQQVSSLSESEESQDSSDSIGSSQKAHGILARRPSYRKILKDLSSEDTRGRKGDGENSGVSAAVTSMSVPTPIYQTSSGQYIAIAPNGALQLASPGTDGVQGLQTLTMTNSGSTQQGTTILQYAQTSDGQQILVPSNQVVVQTASGDMQTYQIRTTPSATSLPQTVVMTSPVTLTSQTTKTDDPQLKREIRLMKNREAARECRRKKKEYVKCLENRVAVLENQNKTLIEELKTLKDLYSNKSV

Soluble on expression in E. coli, not soluble:
MGHHHHHHSHDDSSEWGNSFFWNQLLHVPLRQHQVSCCDWLLKIICGVVTIRTVYASHKQAKACLVSRVSCERTGTRFHTRGVNDDGHVSNFVETEQMIYMDDGVSSFVQIRGSVPLFWEQPGLQVGSHHLRLHRGLEANAPAFDRHMVLLKEQYGQQVVVNLLGSRGGEEVLNRAFKKLLWASCHAGDTPMINFDFHQFAKGG
MGHHHHHHSHGSCEVLRLLDLGASPSYRRWIWQHLELIDGRPLKTHLSEYSPMERFKEFQIKSYPLQDFSSLKLPHLKKAWGLQGTSFSRKIRTSGDTLPKMLGPKIQSRPAQSIKCAMINIKPGELPKEAAVGAYVKVHTVEQGEILGLHQAFLPEGECDTRPLILMSLGNELIRIRKEIFYELIDNDDEMIKKLLKLNIAFPSDEDMCQKFLQQNSWNIFRKDLLQLLVEPCQSQLFTPNRPKKREIYNPKSVVLDLCSINKTTKPRYPIFMAPQKYLPPLRIVQAIKAPRYKIRELLA
MGHHHHHHSHKNMKPIGCNAVQLTGGEPTLRDDLIDIIRMIKEEGYDHIQLNTNGIRLAEDPDFALRVRVAGVNTVYLSFDGVDEKTNPKNHHEIPKILENCRRAQLGLVLVPTVIKGVNDHQLGDIIRFAAENIDIVRGVNFQPVSLVGSMPRKEREQFRITIPDCIKAIEEQTNGEIGREDFYPVPSVVPISRFVEALTGQPQYELTTHFACGMATYIFKDNGRLIPITRFVDVEGLFEF
MGHHHHHHSHMAEISDLDRQIEQLRRCELIKESEVKALCAKAREILVEESNVQRVDSPVTVCGDIHGQFYDLKELFRVGGDVPETNYLFMGDFVDRGFYSVETFLLLLALKVRYPDRITLIRGNHESRQITQVYGFYDECLRKYGSVTVWRYCTEIFDYLSLSAIIDGKIFCVHGGLSPSIQTLDQIRTIDRKQEVPHDGPMCDLLWSDPEDTTGWGVSPRGAGYLFGSDVVAQFNAANDIDMICRAHQLVMEGYKWHFNETVLTVWSAPNYCYRCGNVAAILELDEHLQKDFIIFEAAPQETRGIPSKKPVADYFL
MGHHHHHHSHMANSAGSMANSAGSDKGEQYTLAVGHSLPPALESKLNEIDEISVKTFAKPEEAVDEGKADAYLNVPKEFDSYVNSMTPFKVDVYGNSIDQGSSNAMQLVQSALDQYKNEIVQQRLTNKHIDQSVIQPFTIQQKEADEEKGTSAI
MGHHHHHHSHMANSAGSMANSAGSMATLSDFFPEADPVLEKNYRRCVDLAINMSWSVPGQFKLVETPINSFLLVGDVLPNDMIESKPVNSTNLVNIPFPLSTLGVSTSKKSVEVTSYKSETEKFQEAASISEHSIRGSIVYEGLTWITAMGYNVTDFLVNMLEQMKCPENWSGLHPVDPLACVWLLYFGPKSRCSEIACVSELFIGKKGPILLPPHMYRGDTSVNSFAHHLCQYVKHLYADYEPEILSCPLDITRVKGCLSDLRQVAESCVFLSQRCLLCHLYKQNAAVSKNILTASDCIILGGSGKSLLGTYMKSYKDPATHDSILLPTYNLEAIVNYILEHYGHETAGQEINWE
MGHHHHHHSHMASVSSATFSGHGARSLLQFLRLVGQLKRVPRTGWVYRNVQRPESVSDHMYRMAVMAMVIKDDRLNKDRKL
MGHHHHHHSHMCNTPTYCDLGKAAKDVFNKGYGFGMVKIDLKTKSCSGVMEFSTSGHAYTDTGKASGNLETKYKVCNYGLTFTQKWNTDNTLGTEISWENKLAEGLKLTLDTIFVPNTGKKSGKLKASYKRDCFSVGSNVDIDFSGPTIYGWAVLAFEGWLAGYQMSFDTAKSKLSQNNFALGYKAADFQLHTHVNDGTEFGGSIYQKVNEKIETSINLAWTAGSNNTRFGIAAKYMLDCRTSLSAKVNNASLIGLGYTQTLRPGVKLTLSALIDGKNFSAGGHKVGLGFELEA
MGHHHHHHSHMDWTLAMAQESGVWSEAGQLALHSYLEGLHTLASCAPAPSLSAPRLKSCIQCVESQLLVVIMSVCMLVCQLRNVCVCVHAHACMYLFPVPSGSGCHFRLSALSPATSVPQPEREMRCSWTPHCIWAAGPELV
MGHHHHHHSHMEAPGPAQAAAAESNSREVTEDAADWAPALCPSPEARSPEAPAYRLQDCDALVTMGTGTFGRVHLVKEKTAKHFFALKVMSIPDVIRRKQEQHVHNEKSVLKEVSHPFLIRLFWTWHEERFLYMLMEYVPGGELFSYLRNRGHFSSTTGLFYSAEIICAIEYLHSKEIVYRDLKPENILLDRDGHIKLTDFGFAKKLVDRTWTLCGTPEYLAPEVIQSKGHGRAVDWWALGILIFEMLSGFPPFFDDNPFGIYQKILAGKLYFPRHLDFHVKTGRMM
MGHHHHHHSHMENKGVVALYHYFYGPALIPYFSHTHNPQRSPDFSERQRRREITLTVDGFVPPSSTEDLGDGFYSYAWTNQQVINPGEYLVCHLEGRDINVINGGFTPRDTAPLYAVQAFQDEETNGSLSFIILCKPKEPYRFI
MGHHHHHHSHMIINWNQVSVLWKCLLKQSASYQDRRQSWRRASMKETNRRKSLHPIHQGITELSRSISVDLAESKRLGCLLLSSFQFSIQKLEPFLRDTKGFSLESFRAKASSLSEELKHFADGLETDGTLQKCFEDSNGKASDFSLEASVAEMKEYITKFSLERQTWDQLLLHYQQEAKEILSRGSTEAKITEVKVEPMTYLGSSQNEVLNTKPDYQKNYRTRAKSLTVWSW
MGHHHHHHSHMKEPLDGECGKAVVPQQELLDKIKEEPDNAQEYGCVQQPKTQESKLKIGGVSSVNERPIAQQLNPGFQLSFASSGPSVLLPSVPAVAIKVFCSGCKKMLYKGQTAYHKTGSTQLFCSTRCITRHSSPACLPPPPKKTCTNCSKYKILNIPFYFTFF
